This passage reports stoichiometry N results from article PMC2610422.

This experiment addresses transmembrane glycoprotein gp41 of HIV-1 strain BaL, in the native spike on virions (HIV-1 strain BaL). As to the kind of experiment: cryo-EM structure.

A word on the stoichiometry N: it is the number of molecules, sites or subunits per partner or assembly. In turn, “transmembrane glycoprotein gp41 of HIV-1 strain BaL, in the native spike on virions (natural protein)” gave a stoichiometry N of 3.
